In publication PMC12416549 (2024):
Changes are numbered by the printed parent chain. In names and notes the source's numbering stands.

B1: E60M (designed binder)
chain: SMEEEVEKAAKEYEKKKKEAIEKHLEKLKAKDKEAAERFLKELEEAAKEYAKDEAKTMSMEEAKRRAKKYKEKVLLSELSEEEQKEIKEAEEKLVRTILKYVEEAAK
B2: E91Y (designed binder)
chain: B1 chain with M60E, E91Y
B3: M2N (designed binder)
chain: B1 chain with M2N, M60E
B4: E89C (designed binder)
chain: B1 chain with M60E, E89C
B5: K17D (designed binder)
chain: B1 chain with K17D, M60E
B6: Y101E (designed binder)
chain: B1 chain with M60E, Y101E
B7: K31V (designed binder)
chain: B1 chain with K31V, M60E
B8: K48W (designed binder)
chain: B1 chain with K48W, M60E
B9: S80C (designed binder)
chain: B1 chain with M60E, S80C
B10: Y50Q (designed binder)
chain: B1 chain with Y50Q, M60E
B11: K15D (designed binder)
chain: B1 chain with K15D, M60E
B12: V74Q (designed binder)
chain: B1 chain with M60E, V74Q
B13: K85L (designed binder)
chain: B1 chain with M60E, K85L
B14: K15C (designed binder)
chain: B1 chain with K15C, M60E
B15: L99C (designed binder)
chain: B1 chain with M60E, L99C
B16: E104I (designed binder)
chain: B1 chain with M60E, E104I
B17: E61P (designed binder)
chain: B1 chain with M60E, E61P
B18: A36H (designed binder)
chain: B1 chain with A36H, M60E
B19: E42P (designed binder)
chain: B1 chain with E42P, M60E
B20: A90S (designed binder)
chain: B1 chain with M60E, A90S
B21: K73H (designed binder)
chain: B1 chain with M60E, K73H
B22: V74M (designed binder)
chain: B1 chain with M60E, V74M
B23: S77Y (designed binder)
chain: B1 chain with M60E, S77Y
B24: E34N (designed binder)
chain: B1 chain with E34N, M60E
B25: V95G (designed binder)
chain: B1 chain with M60E, V95G
B26: A47H (designed binder)
chain: B1 chain with A47H, M60E
B27: E45L (designed binder)
chain: B1 chain with E45L, M60E
B28: E7S (designed binder)
chain: B1 chain with E7S, M60E
B29: E103M (designed binder)
chain: B1 chain with M60E, E103M
B30: L94E (designed binder)
chain: B1 chain with M60E, L94E
B31: H24C (designed binder)
chain: B1 chain with H24C, M60E
B32: K11A (designed binder)
chain: B1 chain with K11A, M60E
B33: A10G (designed binder)
chain: B1 chain with A10G, M60E
B34: E62K (designed binder)
chain: B1 chain with M60E, E62K
B35: Y101M (designed binder)
chain: B1 chain with M60E, Y101M
B36: K93F (designed binder)
chain: B1 chain with M60E, K93F
B37: E44L (designed binder)
chain: B1 chain with E44L, M60E
B38: D32W (designed binder)
chain: B1 chain with D32W, M60E
B39: K85D (designed binder)
chain: B1 chain with M60E, K85D
B40: M2Q (designed binder)
chain: B1 chain with M2Q, M60E
B41: L75R (designed binder)
chain: B1 chain with M60E, L75R
B42: E5A (designed binder)
chain: B1 chain with E5A, M60E
B43: E26V (designed binder)
chain: B1 chain with E26V, M60E
B44: I98F (designed binder)
chain: B1 chain with M60E, I98F
B45: I87D (designed binder)
chain: B1 chain with M60E, I87D
B46: I21V (designed binder)
chain: B1 chain with I21V, M60E
B47: A9V (designed binder)
chain: B1 chain with A9V, M60E
B48: K33T (designed binder)
chain: B1 chain with K33T, M60E
B49: K71N (designed binder)
chain: B1 chain with M60E, K71N
B50: E54Y (designed binder)
chain: B1 chain with E54Y, M60E
B51: A67D (designed binder)
chain: B1 chain with M60E, A67D
B52: A35E (designed binder)
chain: B1 chain with A35E, M60E
B53: E3L (designed binder)
chain: B1 chain with E3L, M60E
B54: E60N (designed binder)
chain: B1 chain with M60N
B55: E26Q (designed binder)
chain: B1 chain with E26Q, M60E

Biological target: T1, TNFR1 (Homo sapiens, UniProt P19438)
T1 chain: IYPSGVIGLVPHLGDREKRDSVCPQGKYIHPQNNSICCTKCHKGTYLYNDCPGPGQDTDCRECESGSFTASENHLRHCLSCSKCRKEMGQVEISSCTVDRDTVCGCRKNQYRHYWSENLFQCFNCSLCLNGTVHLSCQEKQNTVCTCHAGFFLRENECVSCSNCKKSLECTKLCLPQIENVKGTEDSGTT
Experiment: yeast display SC50
With B1 the “apparent Kd (screen)” value was 0.49 nM. In the case of B2, the “apparent Kd (screen)” value is reported as 8.56 nM. For B3, the “apparent Kd (screen)” value was 0.49 nM. B4 was tested, and the “apparent Kd (screen)” value was 1.86 nM. For B5, the “apparent Kd (screen)” value was 5.31 nM. In the case of B6, the “apparent Kd (screen)” value is reported as 0.405 nM. B7 was tested, and the “apparent Kd (screen)” value was 0.446 nM. For B8, the “apparent Kd (screen)” value was 2.73 nM. B9 was tested, and the “apparent Kd (screen)” value was 1.05 nM. B10 was tested, and the “apparent Kd (screen)” value was 4.83 nM. For B11, the “apparent Kd (screen)” value was 0.653 nM. With B12 the “apparent Kd (screen)” value was 29.5 nM. For B13, the “apparent Kd (screen)” value was 0.79 nM. In the case of B14, the “apparent Kd (screen)” value is reported as 1.27 nM. For B15, the “apparent Kd (screen)” value was 13.8 nM. In the case of B16, the “apparent Kd (screen)” value is reported as 0.653 nM. In the case of B17, the “apparent Kd (screen)” value is reported as 0.869 nM. For B18, the “apparent Kd (screen)” value was 0.49 nM. With B19 the “apparent Kd (screen)” value was 4.83 nM. B20 was tested, and the “apparent Kd (screen)” value was 0.79 nM. For B21, the “apparent Kd (screen)” value was 12.5 nM. For B22, the “apparent Kd (screen)” value was 1.54 nM. With B23 the “apparent Kd (screen)” value was 0.869 nM. B24 was tested, and the “apparent Kd (screen)” value was 0.49 nM. In the case of B25, the “apparent Kd (screen)” value is reported as 5.84 nM. B26 was tested, and the “apparent Kd (screen)” value was 0.446 nM. For B27, the “apparent Kd (screen)” value was 1.69 nM. In the case of B28, the “apparent Kd (screen)” value is reported as 2.73 nM. For B29, the “apparent Kd (screen)” value was 0.593 nM. B30 was tested, and the “apparent Kd (screen)” value was 8.56 nM. B31 was tested, and the “apparent Kd (screen)” value was 0.446 nM. With B32 the “apparent Kd (screen)” value was 0.446 nM. With B33 the “apparent Kd (screen)” value was 0.446 nM. B34 was tested, and the “apparent Kd (screen)” value was 0.49 nM. With B35 the “apparent Kd (screen)” value was 2.25 nM. In the case of B36, the “apparent Kd (screen)” value is reported as 0.653 nM. For B37, the “apparent Kd (screen)” value was 1.4 nM. B38 was tested, and the “apparent Kd (screen)” value was 22.2 nM. In the case of B39, the “apparent Kd (screen)” value is reported as 0.446 nM. With B40 the “apparent Kd (screen)” value was 0.869 nM. With B41 the “apparent Kd (screen)” value was 1.16 nM. For B42, the “apparent Kd (screen)” value was 0.593 nM. In the case of B43, the “apparent Kd (screen)” value is reported as 0.79 nM. For B44, the “apparent Kd (screen)” value was 4.39 nM. For B45, the “apparent Kd (screen)” value was 15.2 nM. For B46, the “apparent Kd (screen)” value was 0.446 nM. For B47, the “apparent Kd (screen)” value was 0.49 nM. For B48, the “apparent Kd (screen)” value was 0.49 nM. For B49, the “apparent Kd (screen)” value was 0.446 nM. For B50, the “apparent Kd (screen)” value was 7.78 nM. For B51, the “apparent Kd (screen)” value was 5.31 nM. For B52, the “apparent Kd (screen)” value was 2.25 nM. For B53, the “apparent Kd (screen)” value was 12.5 nM. B54 was tested, and the “apparent Kd (screen)” value was 3.63 nM. With B55 the “apparent Kd (screen)” value was 0.956 nM.
